Laboratory results published in patent US20150197564A1 (Regeneron, published 2015).

Key:
[1] = target: T1, bovine LPL (bovine, UniProt P11151 29-478, limits assumed); assay: cell-based or functional assay
T1 sequence (looked up): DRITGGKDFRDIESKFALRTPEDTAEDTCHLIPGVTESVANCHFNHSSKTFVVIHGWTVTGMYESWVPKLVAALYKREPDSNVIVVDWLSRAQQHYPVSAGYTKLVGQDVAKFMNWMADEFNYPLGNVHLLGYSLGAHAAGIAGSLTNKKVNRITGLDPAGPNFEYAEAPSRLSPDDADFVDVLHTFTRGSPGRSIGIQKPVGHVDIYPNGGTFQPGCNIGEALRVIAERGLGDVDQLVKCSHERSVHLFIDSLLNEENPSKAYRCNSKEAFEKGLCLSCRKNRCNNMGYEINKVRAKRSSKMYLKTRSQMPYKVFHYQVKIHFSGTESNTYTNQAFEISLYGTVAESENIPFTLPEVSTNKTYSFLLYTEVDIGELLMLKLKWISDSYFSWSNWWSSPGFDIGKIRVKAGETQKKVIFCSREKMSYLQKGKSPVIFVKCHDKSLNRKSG

[2] = target: T1, bovine LPL; assay: cell-based or functional assay; remark: listed apart in the source

IC50 for blocking LPL [1]: 341 nM
EC50 (nM), inhibition of LPL activity [2]: 199 nM
B1: mANGPTL3(17-240)-His (other)
chain: GAPSRVDPDLSSFDSAPSEPKSRFAMLDDVKILANGLLQLGHGLKDFVHKTKGQINDIFQKLNIFDQSFYDLSLRTNEIKEEEKELRRTTSTLQVKNEEVKNMSVELNSKLESLLEEKTALQHKVRALEEQLTNLILSPAGAQEHPEVTSLKSFVEQQDNSIRELLQSVEEQYKQLSQQHMQIKEIEKQLRKTGIQEPSENSLSSKSRAPRTTPPLQLNETENTEQDASHHHHHH
